Assay results: patent US20240327477A1, “COMPOSITIONS AND METHODS FOR THE TREATMENT OF TDP-43 PROTEINOPATHIES” (SOLA BIOSCIENCES LLC, priority 2020, published 2024)
Values belong to the molecule of their own block, whether it stands above or below them.

Experiments:
Format in all cases: cell-based
[1] = target: T1, phosphorylated GFP-TDP43CTF reporter (Homo sapiens, UniProt Q13148); experiment: Immunoblot with anti-phospho TDP43 antibody (cell extracts and fractions); settings: cell extracts, anti-phosphoTDP43 antibody, Table 13 (FIG. 12)
T1 construct: expressed in transfected cells; host or cells: HEK293

[2] = target: T1, phosphorylated GFP-TDP43CTF reporter; experiment: as above
Text: Cells expressing either GFP-TDP43FL (lanes 1 and 7) or GFP-TDP43CTF (lanes 2-6, 8-12) were co-transfected with Construct 3 (lanes 3 and 9), Construct 17 (lanes 4 and 10), Construct 18 (lanes 5 and 11) and Construct 19 (lanes 6 and 12). Soluble fractions (lanes 1-6) and insoluble fractions (lanes 7-12) were probed with anti-phospho TDP43 antibodies.
(§1) Expression vector plasmids encoding various protein constructs were transfected into HEK293 cells with Lipofectamine 3000 transfection reagent (Thermo Fisher Scientific). Cell lysates were analyzed for expressed proteins using immunoblot assays. Samples of culture media were centrifuged to remove debris prior to analysis. Cells were lysed in a lysis buffer (10 mM Tris-HCl, pH 8.0, 150 mM NaCl, 10 mM EDTA, 2% SDS) containing 2 mM PMSF and protease cocktail (Complete Protease Inhibitor Cocktail; Sigma). After brief sonication, the samples were analyzed for expressed proteins using immunoblot assays. For immunoblot analysis, samples were boiled in an SDS-sample buffer and run on polyacrylamide electrophoresis. Thereafter, the separated protein bands were transferred to a PVDF membrane.
(§2) Expressed proteins were detected using a chemiluminescent signal. Briefly, blots were reacted with a primary antibody capable of binding the particular epitope (e.g., GFP). After rinsing away the unreacted primary antibody, a secondary, enzyme-linked antibody (e.g., HRP-linked anti-lgG antibody) was allowed to react with the primary antibody molecules bound to the blots. Following rinsing, a chemiluminescent reagent was added, and the resultant chemiluminescent signals in the blots were captured on X-ray film.
Transfected HEK293 cells are homogenized in RIPA buffer (50 mM Tris, pH7.5, 150 mM NaCl, 0.1% NP-40, 0.5% sodium deoxycholate, 0.1% SDS) supplemented with protease inhibitor cocktail, 2 mM PMSF, 10 mM NaF, and 2 mM Na3VO4. After brief sonication, protein concentration is measured by BCA assay kit (Pierce). […]

[3] = target: T2, GFP-TDP43FL (Homo sapiens, UniProt Q13148); experiment: Immunoblot (anti-GFP) of reporter level in cell extracts; settings: cell extracts (FIG. 5)
T2 construct: expressed in transfected cells; host or cells: HEK293
Description: as §1, §2

[4] = target: T3, GFP-TDP43CTF (Homo sapiens, UniProt Q13148); experiment: Fluorescence microscopy of GFP-TDP43CTF aggregation (GFP foci) in transfected HEK293 cells; settings: HEK293 cells; for % Aggregation (normalized to GFP-TDP43CTF alone): GFP-TDP43CTF reporter
T3 construct: expressed in transfected cells; host or cells: HEK293
Description: as §1
(§3) In some instances, aggregation of TDP-43 (full-length of C-terminal fragment) GFP reporter constructs (described below) were detected in vivo using fluorescence microscopy. Cultured cells expressing the reporter constructs as well as the fusion protein comprising the J domain and TDP-43-binding domain were washed with PBS and fixed with 4% paraformaldehyde in PBS for 5 minutes. After three 5-min washes with PBS, nuclear DNA was stained with DAPI. Percentage of cells containing TDP-43 (GFP foci) in transfected cells was counted.
We first investigated whether the fusion molecule of the present invention targeting TDP-43 ameliorates its aggregation in cultured cells. To this end, we generated GFP-based reporter constructs GFP-TDP43 and GFP-TDP43, wherein GFP was fused at its C-terminus to either the full-length human TDP-43 protein or the C-terminal fragment TDP-43 which is known to form cytoplasmic aggregation and cytotoxicity (See Table 8 below). HEK293 cells were cultured and transfected with the plasmids encoding the full-length TDP43 or the C-terminal fragment of TDP43, containing the C-terminal 207 amino acids TDP-43 (amino acids 208-414 of human TDP-43) as a GFP fusion [GFP-TDP43FL (SEQ ID NO: 101) or GFP-TDP43CTF (SEQ ID NO: 102)].

[5] = target: T2, GFP-TDP43FL; experiment: Fluorescence microscopy of GFP-TDP43FL aggregation (GFP foci) in transfected HEK293 cells; settings: GFP-TDP43FL reporter, HEK293 cells, Table 10 (FIG. 3/4)
Description: as §1
as §3, with “counted. […]” for “counted.”

% Phospho-TDP43 density (normalized to GFP-TDP43CTF alone) [1]: 47.89%
B1: 15 (protein)
chain: MDYYKILGVDKNASEDEIKKAYRKRALMHHPDRHSGASAEVQKEEEKKFKEVGEAFTILSDPKKKTRYDSGQDIGGGGSGGGGSGGGGSGGGGSAAAEVQLQQSGAELVKPGASVKLSCTASGFNIKDYYMHWVKQRTEQGLEWIGRIDPEDGETKYAPKFQGKATITADTSSNTAYLQLSSLTSEDTAVYYCTIIYYYGSRYVDYWGQGTTLTVSGGGGSGGGGSGGGGSEIVLTQSPTTMAASPGEKITITCSASSSISSSYLHWYQQKPGFSPKLLIYRTSNLASGVPARFSGSGSGTSYSLTIGTMEAEDVATYYCQQGSSIPLTFGSGTKLEI

ability to reduce aggregation of the GFP-TDP43CTF reporter construct (in words, with Tables 13 and 14) ([2]; HEK293 cells): not able to reduce aggregation
B2: Construct 16: comprises a J domain without the consensus HPD sequence (SEQ ID NO: 16), fused to scFv(3B12A) (protein)
chain: MGQDYYSVLGITRNSEDAQIKQAYRRLALKHHPLKSNEPSSAEIFRQIAEAYDVLSDPMKRGIYDKFGEEGLKGGDIGGGGSGGGGSGGGGSGGGGSAAAEVQLQQSGAELVKPGASVKLSCTASGFNIKDYYMHWVKQRTEQGLEWIGRIDPEDGETKYAPKFQGKATITADTSSNTAYLQLSSLTSEDTAVYYCTIIYYYGSRYVDYWGQGTTLTVSGGGGSGGGGSGGGGSEIVLTQSPTTMAASPGEKITITCSASSSISSSYLHWYQQKPGFSPKLLIYRTSNLASGVPARFSGSGSGTSYSLTIGTMEAEDVATYYCQQGSSIPLTFGSGTKLEI

% Phospho-TDP43 density (normalized to GFP-TDP43CTF alone) [1]: 106.49%
B3: 16 (protein)
chain: B2 chain

levels of the full-length reporter construct (GFP-TDP43FL), anti-GFP immunoblot (in words) [3]: No differences | aggregation of GFP-TDP43CTF reporter in cells (in words) ([4]; vs reporter alone): did not reduce aggregation
B4: Construct 2: scFv(3B12A)-only control; binds TDP-43 (protein)
scFv: MGTGSEFDIAAAEVQLQQSGAELVKPGASVKLSCTASGFNIKDYYMHWVKQRTEQGLEWIGRIDPEDGETKYAPKFQGKATITADTSSNTAYLQLSSLTSEDTAVYYCTIIYYYGSRYVDYWGQGTTLTVSGGGGSGGGGSGGGGSEIVLTQSPTTMAASPGEKITITCSASSSISSSYLHWYQQKPGFSPKLLIYRTSNLASGVPARFSGSGSGTSYSLTIGTMEAEDVATYYCQQGSSIPLTFGSGTKLEI

% Aggregation (normalized to GFP-TDP43CTF alone) [5]: 5.86% | % Aggregation (normalized to GFP-TDP43CTF alone) ([4]; Table 10 (FIG. 3/4)): 80.05% | % Aggregation (normalized to GFP-TDP43CTF alone) ([4]; Table 12 (FIG. 8/9A)): 98.40% | % Phospho-TDP43 density (normalized to GFP-TDP43CTF alone) [1]: 122.81%
B5: 2 (protein)
scFv: B4 scFv

% Aggregation (normalized to GFP-TDP43CTF alone) ([4]; Table 12 (FIG. 8/9A)): 115.34%
B6: 11 (protein)
chain: MSVVGLDVGSQSCYIAVARAGGIETIANEFSDRCTPSVISFGSKNRTIGVAAKNQQITHANNTVSNFKRFHGRAFNDPFIQKEKENLSYDLVPLKNGGVGIKVMYMGEEHLFSVEQITAMLLTKLKETAENSLKKPVTDCVISVPSFFTDAERRSVLDAAQIVGLNCLRLMNDMTAVALNYGIYKQDLPSLDEKPRIVVFVDMGHSAFQVSACAFNKGKLKVLGTAFDPFLGGKNFDEKLVEHFCAEFKTKYKLDAKSKIRALLRLYQECEKLKKLMSSNSTDLPLNIECFMNDKDVSGKMNRSQFEELCAELLQKIEVPLYSLLEQTHLKVEDVSAVEIVGGATRIPAVKERIAKFFGKDISTTLNADEAVARGCALQCAILSPAFKVREFSVTDAVPFPISLIWNHDSEDTEGVHEVFSRNHAAPFSKVLTFLRRGPFELEAFYSDPQGVPYPEAKIGRFVVQNVSAQKDGEKSRVKVKVRVNTHGIFTISTASMVEKVPTEENEMSSEADMECLNQRPPENPDTDANEKKVDQPPEAKKPKIKVVNVELPIEANLVWQLGKDLLNMYIETEGKMIMQDKLEKERNDAKNAVEEYVYEFRDKLCGPYEKFICEQDHQNFLRLLTETEDWLYEEGEDQAKQAYVDKLEELMKIGTPVKVRFQEAEERPKMFEELGQRLQHYAKIAADFRNKDEKYNHIDESEMKKVEKSVNEVMEWMNNVMNAQAKKSLDQDPVVRAQEIKTKIKELNNTCEPVVTQPKPKIESPKLERTPNGPNIDKKEEDLEDKNNFGAEPPHQNGECYPNEKNSVNMDLD

% Phospho-TDP43 density (normalized to GFP-TDP43CTF alone) Insoluble fraction ([2]; insoluble fraction, Table 14 (FIG. 14)): 22.77% | % Phospho-TDP43 density (normalized to GFP-TDP43CTF alone) Soluble fraction ([2]; soluble fraction, Table 14 (FIG. 14)): 11.20%
B7: 19 (protein)
chain: MGKDYYQTLGLARGASDEEIKRAYRRQALRYHPDKNKEPGAEEKFKEIAEAYDVLSDPRKREIFDRYGEEGLKGSEVQLQQSGAELVKPGASVKLSCTASGFNIKDYYMHWVKQRTEQGLEWIGRIDPEDGETKYAPKFQGKATITADTSSNTAYLQLSSLTSEDTAVYYCTIIYYYGSRYVDYWGQGTTLTVSGGGGSGGGGSGGGGSEIVLTQSPTTMAASPGEKITITCSASSSISSSYLHWYQQKPGFSPKLLIYRTSNLASGVPARFSGSGSGTSYSLTIGTMEAEDVATYYCQQGSSIPLTFGSGTKLEI
